Source: US5674835, “Papillomaviral expression inhibitors” (New England Medical Center Hospitals, Inc.)

T1: BPV-1 E2 C-terminal segment (cII-E2 fusion, pCOE2-1) (Bovine papillomavirus type 1, UniProt P03122 P03122:114-410)
T1 chain: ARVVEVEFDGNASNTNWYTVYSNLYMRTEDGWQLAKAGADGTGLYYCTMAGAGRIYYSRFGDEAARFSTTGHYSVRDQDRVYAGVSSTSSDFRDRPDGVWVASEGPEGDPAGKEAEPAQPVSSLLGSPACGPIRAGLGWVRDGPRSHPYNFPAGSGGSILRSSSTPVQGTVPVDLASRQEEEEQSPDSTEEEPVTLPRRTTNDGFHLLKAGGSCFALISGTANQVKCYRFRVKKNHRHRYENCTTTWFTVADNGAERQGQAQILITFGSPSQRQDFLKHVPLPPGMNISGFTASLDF

B1: 23 bp fragment without E2 site (dsDNA)
DNA 1: GCGCATAATCAGCTTAATTGGTG
DNA 2: CACCAATTAAGCTGATTATGCGC
B2: 23 bp URR fragment with E2 site IIIb (dsDNA)
DNA 1: CGTCAAACCGTCTTCGGTGCTC
DNA 2: GAGCACCGAAGACGGTTTGACG

What was measured:
Conditions in all cases: tags: 13 N-terminal amino acids of lambda cII; partially purified from E. coli N6405; chain copies: 2
[1] = target: T1, BPV-1 E2 C-terminal segment (cII-E2 …); test: competition; single strand did not block immunoprecipitation of dsDNA
[2] = target: T1, BPV-1 E2 C-terminal segment (cII-E2 …); test: competition; relative to N1; no consensus site
[3] = target: T1, BPV-1 E2 C-terminal segment (cII-E2 …); test: competition; about 1000 times more effective competitor than N2; DNA immunoprecipitation

Binder | binding result [1] | further results
CGTCAAACCGTCTTCGGTGCTC (ssDNA) [single-stranded oligonucleotide with site IIIb] | no binding | –
B1 | – | binding signal [2]: ~0.001 fold
B2 | – | binding signal [3]: ~1000 fold
GCGCATAATCAGCTTAATTGGTG (ssDNA) [single-stranded oligonucleotide without E2 site] | no binding | –
